Measured values published in article PMC5240526, “ATPase activity tightly regulates RecA nucleofilaments to promote homologous recombination”.

Key:
RecA wild type [1] = biological target: T1, RecA wild type (Escherichia coli, UniProt P0A7G6 2-353); test: CE-LIFP; 0.01-3.0 mM ATP; 16 uM RecA; five complexes; 20 mM Tris-HCl pH 7.4, 10 mM Mg2+, 10 nM oligo, 0-3.0 uM RecA, 37 C 10 min; CE in 25 mM Tris, 192 mM glycine, 0.5 mM Ca2+, pH 8.3, room temperature; conditions: protein: recombinant; label: 5'-TMR
RecA wild type [2] = biological target: T1, RecA wild type; test: CE-LIFP; 0.1 mM ATPgS, 10 mM Mg2+; 3.0 uM RecA; saturated filament; 20 mM Tris-HCl pH 7.4, 10 mM Mg2+, 10 nM oligo, 0-3.0 uM RecA, 37 C 10 min; CE in 25 mM Tris, 192 mM glycine, 0.5 mM Ca2+, pH 8.3, room temperature; conditions: protein: recombinant; label: 5'-TMR
RecA wild type [3] = biological target: T1, RecA wild type; test: electron microscopy; 0.1 mM ATPgS; 3.0 uM RecA, 300 nM DNA; saturated filament; 20 mM Tris-HCl pH 7.4, 10 mM Mg2+, 10 nM oligo, 0-3.0 uM RecA, 37 C 10 min; CE in 25 mM Tris, 192 mM glycine, 0.5 mM Ca2+, pH 8.3, room temperature; conditions: protein: recombinant
RecA wild type [4] = biological target: T1, RecA wild type; test: CE-LIFP; 0.01-3.0 mM ATP; 16 uM RecA; four complexes; 20 mM Tris-HCl pH 7.4, 10 mM Mg2+, 10 nM oligo, 0-3.0 uM RecA, 37 C 10 min; CE in 25 mM Tris, 192 mM glycine, 0.5 mM Ca2+, pH 8.3, room temperature; conditions: protein: recombinant; label: 5'-TMR
RecA wild type [5] = biological target: T1, RecA wild type; test: CE-LIFP; ATP, 10 mM Mg2+; 3.0 uM RecA; mainly unsaturated filament; 20 mM Tris-HCl pH 7.4, 10 mM Mg2+, 10 nM oligo, 0-3.0 uM RecA, 37 C 10 min; CE in 25 mM Tris, 192 mM glycine, 0.5 mM Ca2+, pH 8.3, room temperature; conditions: protein: recombinant; label: 5'-TMR
RecA wild type [6] = biological target: T1, RecA wild type; test: CE-LIFP; ATP, 10 mM Mg2+; six complexes (1-6 RecA), mainly 1:4 DNA:RecA at 1.0 mM ATP; 20 mM Tris-HCl pH 7.4, 10 mM Mg2+, 10 nM oligo, 0-3.0 uM RecA, 37 C 10 min; CE in 25 mM Tris, 192 mM glycine, 0.5 mM Ca2+, pH 8.3, room temperature; conditions: protein: recombinant; label: 5'-TMR

T1 sequence (P0A7G6 2-353): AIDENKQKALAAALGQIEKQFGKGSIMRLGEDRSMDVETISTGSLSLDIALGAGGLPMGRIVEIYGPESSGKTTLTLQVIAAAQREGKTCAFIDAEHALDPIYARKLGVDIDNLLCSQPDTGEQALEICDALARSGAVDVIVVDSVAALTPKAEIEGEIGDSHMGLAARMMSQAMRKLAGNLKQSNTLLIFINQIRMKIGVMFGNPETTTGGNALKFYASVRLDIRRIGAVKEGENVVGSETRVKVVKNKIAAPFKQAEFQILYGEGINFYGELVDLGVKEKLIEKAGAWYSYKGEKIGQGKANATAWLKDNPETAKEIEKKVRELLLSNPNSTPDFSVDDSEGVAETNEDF

TTTTTTTTTTTTTTT (ssDNA) [TMR-T15]: binds (RecA wild type [1]).

B1: TMR-ss83mer (ssDNA)
DNA: TTTCCTACCTTAAGATCCTTCCAGTCTCCGCCGGCCAGTGTTACCCTTAGAGCTCATACCATTCGCCAATTTCTTCGCACGTT
B1: binds (RecA wild type [2]).

B2: ss83mer (ssDNA)
DNA: B1 DNA
B2: binds (RecA wild type [3]).

TTTTTTTTTTTT (ssDNA) [TMR-T12]: binds (RecA wild type [4]).

B3: TMR-ss175mer (ssDNA)
DNA: TCGTCTTTGGTATGTAGGTGGTCAACAATTTTAATTGCAGGGGCTTCGGCCCCTTACTTGAGGATAAATTATGTCTAATATTCAAACTGGCGCCGAGCGTATGCCGCATGACCTTTCCCATCTTGGCTTCCTTGCTGGTCAGATTGGTCGTCTTATTACCATTTCAACTACTCCG
B3: binds (RecA wild type [5]).

TTTTTTTTTTTTTTTTTT (ssDNA) [TMR-T18]: binds (RecA wild type [6]).
